Measurements: patent US20260209387A1, “SINGLE-DOMAIN ANTIBODY FOR INHIBITION OF NEUTROPHIL ELASTASE ACTIVITY” (UNIVERSITE DE LIEGE, priority 2023, published 2026)

How the values were obtained:
[1] = tested on: mouse pancreatic elastase (mPE); assay: BLI binding to other serine proteases: mPE; conditions: 50 nM protease
Experimental: (§1) The specificity of NbE201 for hNE was also investigated by BLI. Biotinylated NbE201 (10 μg/mL) was immobilized on streptavidin biosensors (SA, Sartorius) following provider's indications. The biosensors were then immersed in a 50 nM solution of a serine protease. The proteases tested were human cathepsin G (hCG), human proteinase 3 (hPR3), mouse pancreatic elastase (mPE), mouse neutrophil elastase (mNE) and porcine pancreatic elastase (pPE). hNE was used a positive control. The association and dissociation were measured for 70 s and 320 s respectively, in kinetic buffer (KB, Sartorius). The experiments were carried out at 30° C. in 384-wells black-bottom microplates in polypropylene (Greiner Bio-One, Belgium) and with orbital agitation (1000 rpm).

hNE = target: T1, hNE (Homo sapiens, UniProt P08246); assay: BLI specificity assay, hNE positive control; format: binding; conditions: 50 nM protease
T1 construct: purchased Elastin Products Company (EPC)
T1 sequence (P08246 30-247): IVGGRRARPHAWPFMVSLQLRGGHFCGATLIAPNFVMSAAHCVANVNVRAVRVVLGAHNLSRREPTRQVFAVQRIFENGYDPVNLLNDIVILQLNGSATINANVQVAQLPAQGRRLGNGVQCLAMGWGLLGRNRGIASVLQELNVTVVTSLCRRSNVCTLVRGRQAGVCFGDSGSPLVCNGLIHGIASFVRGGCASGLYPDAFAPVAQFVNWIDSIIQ
Experimental: as §1

[2] = target: T2, human proteinase 3 (hPR3) (Homo sapiens, UniProt P24158); assay: BLI binding to other serine proteases: hPR3; conditions: 50 nM protease
T2 construct: purchased EPC (Elastin Products Company)
T2 sequence (P24158 28-248): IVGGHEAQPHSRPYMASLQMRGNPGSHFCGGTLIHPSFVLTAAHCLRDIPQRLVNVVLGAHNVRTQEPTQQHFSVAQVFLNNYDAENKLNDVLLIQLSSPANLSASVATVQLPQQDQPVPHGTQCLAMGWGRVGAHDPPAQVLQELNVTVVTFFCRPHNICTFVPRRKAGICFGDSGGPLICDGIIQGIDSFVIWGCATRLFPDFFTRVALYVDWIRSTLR
Experimental: as §1

[3] = Urea-induced unfolding (intrinsic fluorescence, far UV-CD); format: physicochemical; conditions: pH 7, 25° C.
Experimental: 1.11.1. Preparation of the samples. Samples of NbE201 were incubated overnight at 25° C. in the presence of increasing concentrations of urea (Sigma-Aldrich) in 0.05 M NaP buffer pH 7. The protein concentration was 0.2 mg mL-1. The denaturant concentration in each sample was determined from refractive index measurements (Pace, C. N., 1986, doi.org/10.1016/0076-6879 (86) 31045-0), using a R5000 hand refractometer from Atago (Tokyo, Japan). The same samples were used to measure both the intrinsic fluorescence and far ultraviolet circular dichroism (UV-CD) spectra. Blank samples (without the Nb) every 1 M urea were prepared to make a reference curve that was used to correct the contribution of (buffer+urea) for fluorescence and circular dichroism (CD) signal at each urea concentration.
1.11.2. Measurements of fluorescence and far-UV-CD signals/spectra. Intrinsic fluorescence spectra to monitor changes in the tertiary structure were recorded at 25° C. from 305 nm to 440 nm after excitation at 280 nm with 5 nm excitation and emission slits using a Cary Eclipse Fluorimeter (Agilent, Santa Clara, USA) equipped with a thermostatically controlled multi-cuvette holder and a 10*0.4 mm pathlength quartz micro cuvette. The voltage applied at the detector was 710 V. Data acquisition was made every 0.5 nm with a scan rate of 30 nm·min^−1.
Far UV-CD spectrum of the native and denatured states (i.e. in 9 M urea) were recorded from 190 nm to 260 nm in a 0.2 mm pathlength quartz cuvette at 25° C. […] were recorded with a 0.1 nm data interval, a data pitch of 0.1 nm, 2 s integration time, a bandwidth of 1 nm and a scanning speed of 50 nm/min. The unfolding transitions were monitored by far UV-CD at 207 nm in a 0.2 mm pathlength quartz cuvette. At each denaturant concentration, 37 data points were acquired with a 1 nm bandwidth, a reading frequency of 5 s and a 4 s integration time, and averaged. The measurements were carried out with Jasco J-810 spectropolarimeter, (JASCO, Lisses, France) equipped with a Peltier cell holder.
1.11.3. Data analysis. The intrinsic fluorescence spectra were fitted using a five parameter Weibull function (from software SigmaPlot 5.0) to determine the wavelength corresponding to the highest fluorescence intensity (λmax). The changes in fluorescence intensity at 337 nm were also used to monitor the unfolding transition. The transition curves obtained were analyzed based on a two-state (N ? U) model according to Dumoulin et al. (doi: 10.1110/ps.34602) and equation 1:
where x is the concentration in denaturant and a=(ΔG°NU(H2O)−m*[D])/RT, and yobs is the monitored signal (i.e. λmax, F337 nm or CD207 nm) at a given denaturant concentration, and YN and YU are the values of these signals for the native and denatured states, respectively in the absence of denaturant. ΔG°NU(H2O) is the difference in free energy between the folded and unfolded states at 25° C.; m is a measure of the dependence of the free energy on the denaturant concentration, and [D] is the denaturant concentration. p and q are the slopes of the pre- and post-unfolding baselines, respectively, R is the gas constant, and T is the absolute temperature. Cm, the denaturant concentration at the midpoint of the denaturation curve ([U]/[N]=1) is defined as ΔG°NU(H2O)/m.

B1: NbE201: anti-hNE ISVD (VHH/nanobody) from immunized lama, amino acid sequence SEQ ID NO: 4 (protein)
VHH: QVQLQESGGGLVQAGGSLRLSCVVPGRTISLYRMGWFRQAPGKEREFVAGINWSGDMTDYVDSVKGRFTISRDNAKNTVYLEMNSLKPEDTAIYYCTADPKLLPLADSSYGYWGQGTQVTVSS
With B1 the “binding to mPE by BLI” value [1] was “does not bind to the other proteases”, the “binding to hNE by BLI (positive control)” value (hNE) was “association signal” and the “binding to hPR3 by BLI” value [2] was “does not bind to the other proteases”. The Cm ([3]; CD) was 5.8 M, the m ([3]; CD) was 7.7 kJ · mol^−1 M^−1 and the “ΔG°NU(H2O)” value ([3]; CD) was 10.6 kcal/mol. The Cm ([3]; F (337 nm)) was 5.8 M, the m ([3]; F (337 nm)) was 6.7 kJ · mol^−1 M^−1 and the “ΔG°NU(H2O)” value ([3]; F (337 nm)) was 9.32 kcal/mol. For the same molecule, the Cm ([3]; F (λmax)) was 6.0 M, the m ([3]; F (λmax)) was 6.5 kJ · mol^−1 M^−1 and the “ΔG°NU(H2O)” value ([3]; F (λmax)) was 9.35 kcal/mol. For the same molecule, the Cm ([3]; Mean ± SD of the three probes) was 5.9 ± 0.1 M, the m ([3]; Mean ± SD of the three probes) was 7.0 ± 0.5 kJ · mol^−1 M^−1 and the “ΔG°NU(H2O)” value ([3]; Mean ± SD of the three probes) was 9.75 ± 0.598 kcal/mol.
